US20250270315A1 (ELPISCIENCE SUZHOU BIOPHARMA, published 2025)

Assays:
[1] = target: T1, human SIRPγ stably expressed on 293F cells (human, UniProt Q9P1W8 29-387); experiment: FACS, 293F-human SIRPγ cells
T1 construct: whole, on cells

[2] = target: T2, human SIRPβL ECD recombinant protein (6×His tagged) (human, UniProt Q5TFQ8 30-371); experiment: ELISA, recombinant human SIRPβL (SIRPβI) ECD
T2 construct: given variously as SIRPBL, SIRPBI and SIRPβI; Bought from Biointron; also called human SIRPBL ECD; human SIRPBI ECD
T2 sequence (Q5TFQ8 30-371 limits assumed): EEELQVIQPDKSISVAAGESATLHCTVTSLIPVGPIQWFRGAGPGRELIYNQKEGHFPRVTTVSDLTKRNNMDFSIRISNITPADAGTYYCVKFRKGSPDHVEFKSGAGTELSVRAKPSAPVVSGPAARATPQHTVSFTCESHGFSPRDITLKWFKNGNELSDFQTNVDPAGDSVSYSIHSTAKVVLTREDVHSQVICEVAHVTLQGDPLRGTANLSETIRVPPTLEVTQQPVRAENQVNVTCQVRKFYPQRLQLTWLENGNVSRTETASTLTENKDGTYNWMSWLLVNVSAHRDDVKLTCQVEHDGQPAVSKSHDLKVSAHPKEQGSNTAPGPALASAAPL
Text: (§1) Binding activity of the purified chimeric antibodies against SIRPβ and SIRPBI was detected by ELISA assay using recombinant proteins of human SIRPβ ECD (FIGS. 3A and 3B), human SIRPBI ECD (FIGS. 3D and 3E) and FACS assay using CHOK 1 cells stably expressing human SIRPB (FIG. 3C).

[3] = target: T3, human SIRPα v1 ECD recombinant protein (tag not given) (human, UniProt P78324 31-373); experiment: competitive ELISA, coated human SIRPα v1 ECD, blocked ligand mFc tagged human CD47 ECD
T3 construct: extracellular domain; also called biotin labeled soluble human SIRPα v1 ECD recombinant protein; ELISA microplate coated human SIRPα v1 ECD
T3 sequence (P78324 31-373): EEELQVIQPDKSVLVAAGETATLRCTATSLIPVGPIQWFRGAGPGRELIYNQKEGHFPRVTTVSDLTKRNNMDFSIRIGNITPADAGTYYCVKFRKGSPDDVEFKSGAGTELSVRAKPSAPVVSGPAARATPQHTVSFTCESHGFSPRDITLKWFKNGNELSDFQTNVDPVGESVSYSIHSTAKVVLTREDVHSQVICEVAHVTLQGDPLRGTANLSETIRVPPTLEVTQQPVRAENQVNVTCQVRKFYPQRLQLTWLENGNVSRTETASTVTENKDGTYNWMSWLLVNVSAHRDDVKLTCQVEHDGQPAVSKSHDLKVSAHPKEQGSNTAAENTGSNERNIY
Description: (§2) Competitive ELISA assay was used to determine whether the purified chimeric antibodies can block CD47 and SIRPα interaction. Briefly, antibody and mFc tagged human CD47 ECD recombinant protein were co-incubated with ELISA microplate coated human SIRPα v1 ECD (FIGS. 6A and 6B) or human SIRPα v2 ECD (FIGS. 7A and 7B) recombinant protein. After washing, HRP labeled anti-mouse Fc 2nd antibody (Sigma) was added and incubated at 37° C. for 1 hour. Then, 100 μl/well of TMB solution (Biotechnology) was added. After incubation for 15 minutes at room temperature, the reaction was stopped by the addition of 50 μl of 1N HCl. OD 450 nm was read. Blocking ratio was determined by blockade of human CD47 ECD recombinant protein binding to ELISA microplate coated human SIRPα ECD recombinant protein. Other than 005, all antibodies as tested can block interaction between human CD47 and different human SIRPα variants.

[4] = target: Human SIRPα v1 (antigen of the Octet and Biacore affinity measurements) (human, UniProt P78324 31-370, limits assumed); experiment: SPR (Biacore), 1:1 binding model
Human SIRPα v1 (antigen of the Octet and Biacore affinity measurements), sequence (P78324 31-370 limits assumed): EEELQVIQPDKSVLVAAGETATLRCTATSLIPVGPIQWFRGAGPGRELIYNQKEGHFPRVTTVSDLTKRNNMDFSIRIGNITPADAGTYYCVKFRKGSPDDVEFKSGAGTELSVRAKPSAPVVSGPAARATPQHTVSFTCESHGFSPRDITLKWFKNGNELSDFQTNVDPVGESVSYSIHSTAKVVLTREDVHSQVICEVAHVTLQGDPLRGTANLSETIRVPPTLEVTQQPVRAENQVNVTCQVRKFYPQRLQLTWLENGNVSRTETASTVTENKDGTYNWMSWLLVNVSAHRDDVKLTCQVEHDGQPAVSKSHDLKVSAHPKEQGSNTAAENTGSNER
Description: The humanized antibodies were characterized for binding affinity against human SIRPα v1, human SIRPα v2 using Surface Plasmon Resonance technology (Biacore system). The association and dissociation curves were fit with 1:1 binding model, and the Ka/Kd/KD values for each antibody were calculated.

[5] = target: T4, human SIRPβ stably expressed on CHOK1 cells (human, UniProt O00241 30-398); experiment: FACS, CHOK1-hSIRPβ cells
T4 construct: whole, on cells; also called CHOK1-human SIRPB; CHOK1-hSIRPβ
T4 sequence (O00241 30-398): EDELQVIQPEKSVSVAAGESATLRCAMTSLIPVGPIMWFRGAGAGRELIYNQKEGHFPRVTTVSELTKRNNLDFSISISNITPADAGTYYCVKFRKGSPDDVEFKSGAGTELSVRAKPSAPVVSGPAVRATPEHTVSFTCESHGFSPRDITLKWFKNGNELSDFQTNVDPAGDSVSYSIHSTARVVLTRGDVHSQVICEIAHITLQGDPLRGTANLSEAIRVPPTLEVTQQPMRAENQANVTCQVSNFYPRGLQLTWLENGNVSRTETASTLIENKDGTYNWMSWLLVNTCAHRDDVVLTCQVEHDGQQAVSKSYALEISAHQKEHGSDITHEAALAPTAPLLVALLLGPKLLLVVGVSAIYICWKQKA
Text: as §1

[6] = target: full length human SIRPα v1 with a small beta-gal fragment (ED) fused to its C-terminal, expressed in K562 … (human, UniProt P78324 31-504); experiment: cell-based or functional assay
full length human SIRPα v1 with a small beta-gal fragment (ED) fused to its C-terminal, expressed in K562 …, sequence (P78324 31-504): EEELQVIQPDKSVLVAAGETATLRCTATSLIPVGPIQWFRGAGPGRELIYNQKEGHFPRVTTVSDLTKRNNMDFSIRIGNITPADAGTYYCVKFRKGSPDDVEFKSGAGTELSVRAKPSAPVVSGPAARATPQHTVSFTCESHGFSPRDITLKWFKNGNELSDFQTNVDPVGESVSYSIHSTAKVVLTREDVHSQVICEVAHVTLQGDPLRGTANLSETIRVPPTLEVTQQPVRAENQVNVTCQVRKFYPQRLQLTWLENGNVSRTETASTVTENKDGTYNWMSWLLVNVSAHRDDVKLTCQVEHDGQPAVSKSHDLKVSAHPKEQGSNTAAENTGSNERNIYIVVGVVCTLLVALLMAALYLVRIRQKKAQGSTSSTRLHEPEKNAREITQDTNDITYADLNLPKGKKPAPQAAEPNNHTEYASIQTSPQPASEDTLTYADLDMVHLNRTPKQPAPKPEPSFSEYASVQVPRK

[7] = target: T5, human SIRPα v2 ECD recombinant protein (tag not given) (human); experiment: competitive ELISA, mFc-CD47 ECD on coated SIRPα v2 ECD
T5 construct: extracellular domain; also called ELISA microplate coated human SIRPα v2 ECD
Description: as §2
The humanized antibodies were tested for the ability to block CD47 and SIRPα interaction with competitive ELISA assay (refer to methods described in Example 4.2.3.).

[8] = target: T5, human SIRPα v2 ECD recombinant protein …; experiment: competitive ELISA, coated human SIRPα v2 ECD, blocked ligand mFc tagged human CD47 ECD
Description: as §2

[9] = target: T6, mFc tagged human SIRPα v1 ECD recombinant protein (human, UniProt P78324 31-373); experiment: competitive ELISA binning, mFc-SIRPα v1 ECD; competitor 025c
T6 construct: extracellular domain; Bought from Biointron; not shown: mouse IgG Fc (mFc) tag
T6 sequence (P78324 31-373): as the sequence (P78324 31-373) above
Description: Competitive ELISA assay was used for epitope binning of purified chimeric antibodies. Briefly excessive competitor antibody and mFc tagged human SIRPα v1 ECD recombinant protein were co-incubated with ELISA microplate coated antibody. After washing, HRP labeled anti-mouse Fc 2nd antibody (Sigma) was added and incubated at 37° C. for 1 hour. Then, 100 μl/well of TMB solution (Biotechnology) was added. After incubation for 15 minutes at room temperature, the reaction was stopped by the addition of 50 μl of 1N HCl. OD 450 nm was read. Competition ratio was calculated. The antibodies that can compete each other for binding to SIRPα may have related binding epitopes.

[10] = target: T1, human SIRPγ stably expressed on 293F …; experiment: FACS, 293F-hSIRPγ cells
Text: All the humanized antibodies as tested were confirmed to retain the similar activity as the parental antibody of 025c to bind to SIRP family members.

[11] = target: T7, cyno SIRPγ ECD recombinant protein (cyno); experiment: ELISA, cyno SIRPγ ECD
T7 construct: extracellular domain

[12] = target: T8, human SIRPβ ECD recombinant protein (6×His tagged) (human, UniProt O00241 30-371); experiment: ELISA, hSIRPβ ECD
T8 construct: extracellular domain; Bought from Sino Biological; also called hSIRPβ ECD; not shown: 6×His tag
T8 sequence (O00241 30-371): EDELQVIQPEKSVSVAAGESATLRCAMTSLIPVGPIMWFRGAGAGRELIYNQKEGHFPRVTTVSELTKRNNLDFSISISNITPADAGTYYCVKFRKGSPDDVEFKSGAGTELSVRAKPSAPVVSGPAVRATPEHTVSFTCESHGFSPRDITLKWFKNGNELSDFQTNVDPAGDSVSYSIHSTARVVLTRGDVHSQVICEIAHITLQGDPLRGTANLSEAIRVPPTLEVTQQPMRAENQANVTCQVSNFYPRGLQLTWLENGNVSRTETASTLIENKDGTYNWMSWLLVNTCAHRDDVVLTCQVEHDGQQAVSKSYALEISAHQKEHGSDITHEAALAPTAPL
Text: as §1

[13] = target: T9, full length human SIRPα v1 stably expressed on CHOK1 or 293F cells (human, UniProt P78324 31-504); experiment: competitive FACS, mFc-CD47 ECD on CHOK1-human SIRPα v1 cells
T9 construct: whole, on cells; also called CHOK1-human SIRPα v1; CHOK1-hSIRPα v1
T9 sequence (P78324 31-504): as the sequence (P78324 31-504) above
Procedure, shortened: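 Antibody co-incubated with mFc-tagged human CD47 ECD on CHOK1 cells stably expressing human SIRPα v1 or v2; dye-labeled anti-mouse Fc secondary added, 37 °C for 1 h. Fluorescence intensity read; blocking ratio derived from inhibition of CD47 ECD binding to SIRPα-expressing cells.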

T1 sequence (Q9P1W8 29-387): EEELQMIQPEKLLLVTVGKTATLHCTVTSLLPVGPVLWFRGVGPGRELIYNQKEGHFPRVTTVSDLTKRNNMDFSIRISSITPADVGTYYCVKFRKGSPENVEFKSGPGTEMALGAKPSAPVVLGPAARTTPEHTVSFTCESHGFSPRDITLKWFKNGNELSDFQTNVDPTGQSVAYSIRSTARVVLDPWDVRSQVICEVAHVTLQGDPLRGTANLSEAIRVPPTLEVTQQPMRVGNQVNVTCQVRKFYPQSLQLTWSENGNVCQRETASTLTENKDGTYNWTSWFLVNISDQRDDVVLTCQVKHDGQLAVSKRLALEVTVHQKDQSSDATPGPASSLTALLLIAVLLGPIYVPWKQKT

B1: 025c (antibody, V domains shown)
VH: EVQLQQSGAELVKPGASVKLSCTASGFNIKDYYMHWVKQRTEQGLEWIGRIDPEDGETKYAPKFQGKATITADTSSNTAYLQLSSLTSEDTAVYYCDRGLAYWGQGTLVTVSA
VL: QIVLTQSPAIMSASPGEKVTLTCSASSSVSSSYLYWYQQKPGSSPKLWIYSTSNLASGVPARFSGSGSGTSYSLTISSMEAEDAASYFCHQWSSYPYTFGGGTKLEIK
notes: also called chimeric antibody 025c; parental antibody of 025c
**Q.** Which results are given for B1?
**A.** EC50 [1]: 0.11 nM; TOP MFI [1]: 3220 MFI; EC50 (read off the curve) [2]: ~0.4 nM; IC50 (read off the curve) [3]: 2 to 3 nM; Kd [4]: 1.53 nM; koff [4]: 0.000924 s⁻¹; kon [4]: 602000 M⁻¹ s⁻¹; EC50 [5]: 0.38 nM; TOP MFI [5]: 10900 MFI; SHP-1 recruitment blocking, IC50 [6]: 0.08 nM; SHP-1 recruitment blocking, TOP blocking (%) [6]: 87%; IC50 [7]: 1.86 nM; TOP blocking (%) [7]: 98.6%; IC50 (read off the curve) [8]: ~2 nM; % Competition [9]: 93.5%; EC50 [10]: 0.2 nM; TOP MFI [10]: 22800 MFI; EC50 [11]: 0.36 nM; TOP OD450 [11]: 3.07 OD450; EC50 [12]: 0.04 nM; TOP OD450 [12]: 3.1 OD450; IC50 [13]: 0.4 nM; TOP blocking (%) [13]: 97.6%
